Values of other authors as cited in PMC3686494.

Target: AgCad1 (cadherin) CR9-11 (Anopheles gambiae)
Assay: one-site saturation binding

Q: For Cry4Ba (from UniProt P05519), which Kd is on record?
A: 13 nM
